The assay concerns the target T1, Recombinant human valosin-containing protein (VCP) (human, UniProt P55072 1-806).
T1 construct: valosin-containing protein (VCP), human, recombinant; Commercial protein; The supplier is printed as 'Abnoba', probably Abnova; No catalogue number or tag is printed; also called recombinant VCP; source: bought: Abnoba, Taipei, Taiwan
The assay is described as follows: co-IP; recombinant mouse PKM2 (100 pmol) and recombinant human VCP (10 pmol) coincubated 1 h at 25 °C; precipitated with rabbit anti-PKM2 antibody or normal mouse IgG cross-linked to Dynabeads Protein G, 2 h at 25 °C; Western blot for PKM2 and VCP. The conditions noted are these: both partners purified. (In general: Immunoblotting shows a protein as a band on a membrane.)

One molecule from paper PMC7656253, “Recovery of motor function of chronic spinal cord injury by extracellular pyruvate kinase isoform M2 and the underlying mechanism” (Scientific Reports, 2020) can be followed below.

T1 sequence (P55072 whole entry): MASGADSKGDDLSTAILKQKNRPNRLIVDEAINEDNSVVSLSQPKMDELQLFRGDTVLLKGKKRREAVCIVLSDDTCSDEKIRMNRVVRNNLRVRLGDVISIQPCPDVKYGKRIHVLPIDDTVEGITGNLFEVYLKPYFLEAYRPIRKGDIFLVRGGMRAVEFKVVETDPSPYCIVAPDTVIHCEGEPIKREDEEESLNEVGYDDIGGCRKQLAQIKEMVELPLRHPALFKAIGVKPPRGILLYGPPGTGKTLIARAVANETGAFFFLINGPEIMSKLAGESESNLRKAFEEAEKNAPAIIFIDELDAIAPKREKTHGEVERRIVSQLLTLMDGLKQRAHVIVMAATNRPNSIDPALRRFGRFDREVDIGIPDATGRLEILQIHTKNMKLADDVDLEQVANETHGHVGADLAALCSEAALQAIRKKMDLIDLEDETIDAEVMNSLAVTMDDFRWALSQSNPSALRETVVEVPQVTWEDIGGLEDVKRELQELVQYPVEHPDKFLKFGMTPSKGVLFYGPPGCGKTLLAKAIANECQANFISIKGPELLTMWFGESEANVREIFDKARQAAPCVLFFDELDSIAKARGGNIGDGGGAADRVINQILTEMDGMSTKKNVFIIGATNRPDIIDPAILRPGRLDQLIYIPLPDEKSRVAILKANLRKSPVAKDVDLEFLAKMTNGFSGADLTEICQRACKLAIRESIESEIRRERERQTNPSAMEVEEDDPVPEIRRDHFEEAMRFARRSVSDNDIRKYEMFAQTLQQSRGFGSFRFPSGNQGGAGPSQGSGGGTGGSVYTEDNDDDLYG

B1: Recombinant mouse pyruvate kinase isoform M2 (PKM2) (enzyme)
chain: not shown
notes: pyruvate kinase isoform M2 (PKM2), mouse, recombinant; Commercial protein; No catalogue number, expression host or tag is printed; also called recombinant PKM2; extracellular PKM2; source: bought: Abcam
On to B1, for which the binding result is “binds”.
